Broadly, the IC50 is the concentration at which inhibition is half-maximal.

Our source for the IC50 values is the Immune Epitope Database (IEDB).

For test [1], the target named is HLA-A*02:01. Kind of test: IEDB peptide-MHC binding, cellular MHC/competitive/fluorescence; ≥ and ≤ were set here for values at or beyond the usual limits of such assays.
The target in another test is HLA-A*02:06. The description is as above.
A further test has as its target HLA-A*68:02. Described as above.
The target of another test is HLA-A*02:02. Kind of test: IEDB peptide-MHC binding, purified MHC/competitive/radioactivity; ≥ and ≤ were set here for values at or beyond the usual limits of such assays.
The target of the next test is HLA-A*02:03. The description is as above.
The target of test [2] is HLA-A*02:01. The description is as above.
Where [3] appears, read: source organism: Influenza A virus.
[4] abbreviates: source organism: Vaccinia virus WR.
Setting [5] is: source organism: Mammarenavirus guanaritoense.
Setting [6] is: source organism: Hepacivirus hominis.

Turning to AAFEDLRLL, the half-maximal inhibitory concentration (IC50) with HLA-A*02:01 [1] (setting [3]) amounted to 15.5 µM; with HLA-A*02:06 (setting [3]) it was 6.19 µM; in the test with HLA-A*68:02 (setting [3]), 18.1 µM; with HLA-A*02:02 (setting [3]), 4.45 µM; with HLA-A*02:03 (setting [3]) it was 1.47 µM.
For AIRAGYSIV, the IC50 came to 5.01 µM in the test with HLA-A*02:01 [1] (setting [4]); 8.06 µM with HLA-A*02:06 (setting [4]); 15.4 µM with HLA-A*68:02 (setting [4]); 1.2 µM with HLA-A*02:02 (setting [4]); 0.00021 µM with HLA-A*02:03 (setting [4]).
As to ALKNSQAELT, the IC50 with HLA-A*02:01 [1] (setting [4]) came out at 51 µM; with HLA-A*02:06 (setting [4]), 27.2 µM; with HLA-A*68:02 (setting [4]), 47.4 µM; with HLA-A*02:02 (setting [4]) it was 2.12 µM; in the test with HLA-A*02:03 (setting [4]) it was 0.98 µM.
As to AMHDKKIDIL, the IC50 is 8.94 µM with HLA-A*02:01 [1] (setting [4]); at least 70 µM in the test with HLA-A*02:06 (setting [4]); at least 70 µM with HLA-A*68:02 (setting [4]); 0.387 µM in the test with HLA-A*02:02 (setting [4]); 1.18 µM with HLA-A*02:03 (setting [4]).
On to DTIAHINTLI, for which the 50% inhibitory concentration (IC50) with HLA-A*02:01 [1] (setting [4]) is 10.3 µM; in the test with HLA-A*02:06 (setting [4]) it was 62.7 µM; with HLA-A*68:02 (setting [4]) it was at least 70 µM; in the test with HLA-A*02:02 (setting [4]) it was 1.16 µM; with HLA-A*02:03 (setting [4]), 0.114 µM.
The corresponding values for EIDVSEVKTL are at least 70 µM, 56.1 µM, 8.12 µM, 4.95 µM and 2.24 µM.
For EILSNTTKTL, the IC50 with HLA-A*02:01 [1] (setting [4]) was 10.1 µM; with HLA-A*02:06 (setting [4]), at least 70 µM; with HLA-A*68:02 (setting [4]), 15.1 µM; with HLA-A*02:02 (setting [4]) it was 0.345 µM; with HLA-A*02:03 (setting [4]) it was 0.101 µM.
The corresponding values for EMKYALINLV are 7.36 µM, 9.84 µM, at least 70 µM, 1.26 µM and 0.283 µM.
On to FMNDLQVSR, for which the IC50 with HLA-A*02:01 [1] (setting [5]) is 6.25 µM; with HLA-A*02:06 (setting [5]), 33.6 µM; with HLA-A*68:02 (setting [5]), 26.3 µM; with HLA-A*02:02 (setting [5]), 0.249 µM; with HLA-A*02:03 (setting [5]) it was 0.915 µM.
For the sequence GIKNLKSLL, the IC50 in the test with HLA-A*02:01 [1] (setting [4]) is 54.5 µM; with HLA-A*02:06 (setting [4]), 61.7 µM; with HLA-A*68:02 (setting [4]) it was at least 70 µM; with HLA-A*02:02 (setting [4]) it was 2.14 µM; with HLA-A*02:03 (setting [4]), 2.62 µM.
On the same counts, the results for GLCNYGGILI are 24.2 µM, 5.03 µM, 35.2 µM, 0.152 µM and 3.21 µM.
Turning to HLRASTTENA, the IC50 was 20.1 µM with HLA-A*02:01 [1] (setting [4]); at least 70 µM with HLA-A*02:06 (setting [4]); 36.3 µM in the test with HLA-A*68:02 (setting [4]); 0.488 µM with HLA-A*02:02 (setting [4]); 0.038 µM with HLA-A*02:03 (setting [4]).
IIAVFDSKLI: the IC50 is 5.93 µM with HLA-A*02:01 [1] (setting [4]); 8.51 µM in the test with HLA-A*02:06 (setting [4]); 54.7 µM in the test with HLA-A*68:02 (setting [4]); 0.758 µM in the test with HLA-A*02:02 (setting [4]); 0.595 µM in the test with HLA-A*02:03 (setting [4]).
The corresponding values for ITFLRPVLKA are at least 70 µM, 18 µM, 21.4 µM, 3.16 µM and 0.718 µM.
The corresponding values for KQNKFGDSPL are 5.55 µM, 5.08 µM, 31.6 µM, 0.09 µM and 0.216 µM.
Regarding LATLNTLIT, the IC50 with HLA-A*02:01 [1] (setting [4]) was determined as 10.6 µM; with HLA-A*02:06 (setting [4]) it was 14.2 µM; in the test with HLA-A*68:02 (setting [4]), 13.9 µM; with HLA-A*02:02 (setting [4]), 1.16 µM; in the test with HLA-A*02:03 (setting [4]) it was 1.55 µM.
Take LIKTLSPAHL: the IC50 with HLA-A*02:01 [1] (setting [4]) was found to be 11.6 µM; with HLA-A*02:06 (setting [4]), 10.2 µM; in the test with HLA-A*68:02 (setting [4]), 33.3 µM; with HLA-A*02:02 (setting [4]) it was 1.85 µM; in the test with HLA-A*02:03 (setting [4]), 0.356 µM.
The corresponding values for LITNTKSDNI are at least 70 µM, 18.8 µM, 20.7 µM, 2.25 µM and 3.08 µM.
The corresponding values for LLKETIQKDI are 9.03 µM, 23.4 µM, 13.2 µM, 3.06 µM and 0.782 µM.
On the same counts, the results for LVDKEDTDIV are at least 70 µM, 27.2 µM, 56.8 µM, 3.7 µM and 1.68 µM.
In the case of NLYISDYKML, the IC50 with HLA-A*02:01 [1] (setting [4]) worked out at 7.88 µM; with HLA-A*02:06 (setting [4]), 35.9 µM; with HLA-A*68:02 (setting [4]), 30.9 µM; in the test with HLA-A*02:02 (setting [4]) it was 1.25 µM; with HLA-A*02:03 (setting [4]) it was 1.83 µM.
Turning to NMKPNFWSRI, the IC50 with HLA-A*02:01 [1] (setting [4]) amounted to 23.4 µM; with HLA-A*02:06 (setting [4]), 13.9 µM; with HLA-A*68:02 (setting [4]), 13.1 µM; in the test with HLA-A*02:02 (setting [4]), 1.68 µM; with HLA-A*02:03 (setting [4]), 0.193 µM.
On the same counts, the results for NVKSKLLWFL are 33.2 µM, 31.1 µM, 7.3 µM, 2.29 µM and 0.633 µM.
PASKKESVI: the IC50 was 18.8 µM with HLA-A*02:01 [1] (setting [4]); 10.3 µM in the test with HLA-A*02:06 (setting [4]); at least 70 µM with HLA-A*68:02 (setting [4]); 1.35 µM in the test with HLA-A*02:02 (setting [4]); 1.76 µM with HLA-A*02:03 (setting [4]).
With PLSINVSGV, the IC50 with HLA-A*02:01 [1] (setting [4]) was found to be 6.54 µM; in the test with HLA-A*02:06 (setting [4]) it was 17.9 µM; in the test with HLA-A*68:02 (setting [4]) it was 22.5 µM; with HLA-A*02:02 (setting [4]), 1.12 µM; with HLA-A*02:03 (setting [4]), 0.045 µM.
Consider RILSEKRKDT, for which the IC50 was determined as 48.7 µM in the test with HLA-A*02:01 [1] (setting [4]); 6.87 µM with HLA-A*02:06 (setting [4]); 10 µM in the test with HLA-A*68:02 (setting [4]); 0.711 µM with HLA-A*02:02 (setting [4]); 4.16 µM in the test with HLA-A*02:03 (setting [4]).
For the sequence RLRQDTEDIV, the IC50 with HLA-A*02:01 [1] (setting [4]) was found to be 5.95 µM; in the test with HLA-A*02:06 (setting [4]) it was 7.49 µM; in the test with HLA-A*68:02 (setting [4]), 35.5 µM; with HLA-A*02:02 (setting [4]) it was 0.134 µM; with HLA-A*02:03 (setting [4]), 0.284 µM.
As for RLTILGKDA, the IC50 with HLA-A*02:01 [1] (setting [3]) is 10.9 µM; with HLA-A*02:06 (setting [3]) it was at least 70 µM; in the test with HLA-A*68:02 (setting [3]), at least 70 µM; in the test with HLA-A*02:02 (setting [3]), 1.56 µM; with HLA-A*02:03 (setting [3]), 3.51 µM.
With RTLFQQMRDVL, the IC50 was 13.7 µM in the test with HLA-A*02:01 [1] (setting [3]); at least 70 µM with HLA-A*02:06 (setting [3]); at least 70 µM with HLA-A*68:02 (setting [3]); 1.89 µM in the test with HLA-A*02:02 (setting [3]); 3.83 µM with HLA-A*02:03 (setting [3]).
Take SAFDERRNKYL: the IC50 was 24.3 µM in the test with HLA-A*02:01 [1] (setting [3]); at least 70 µM in the test with HLA-A*02:06 (setting [3]); 14.1 µM in the test with HLA-A*68:02 (setting [3]); 1.09 µM with HLA-A*02:02 (setting [3]); 2.48 µM in the test with HLA-A*02:03 (setting [3]).
For the sequence SLKRFTHTT, the IC50 with HLA-A*02:01 [1] (setting [4]) amounted to 5.66 µM; in the test with HLA-A*02:06 (setting [4]), 59.7 µM; in the test with HLA-A*68:02 (setting [4]) it was 42 µM; with HLA-A*02:02 (setting [4]), 0.825 µM; with HLA-A*02:03 (setting [4]) it was 0.0091 µM.
As to VLTILYYGA, the IC50 with HLA-A*02:06 (setting [4]) worked out at 6.24 µM; in the test with HLA-A*68:02 (setting [4]), 18.6 µM; in the test with HLA-A*02:01 [2] (setting [4]), 0.212 µM; with HLA-A*02:02 (setting [4]), 0.0013 µM; in the test with HLA-A*02:03 (setting [4]) it was 0.018 µM.
Regarding VMPEKRNVVV, the IC50 came to 27.6 µM with HLA-A*02:06 (setting [4]); 6.74 µM with HLA-A*68:02 (setting [4]); 3.92 µM with HLA-A*02:01 [2] (setting [4]); 3.54 µM with HLA-A*02:02 (setting [4]); 0.299 µM with HLA-A*02:03 (setting [4]).
The corresponding values for YIRRNMINKL are 8.67 µM, 13.7 µM, 3.8 µM, 0.82 µM and 0.07 µM.
The corresponding values for YLSKEDRII are 10.5 µM, at least 70 µM, 1.5 µM, 0.305 µM and 0.435 µM.
On to YVLLLFLLLA, for which the IC50 amounted to 5.9 µM with HLA-A*02:06 (setting [6]); 12 µM with HLA-A*68:02 (setting [6]); 0.866 µM with HLA-A*02:01 [2] (setting [6]); 1.05 µM with HLA-A*02:02 (setting [6]); 0.727 µM with HLA-A*02:03 (setting [6]).
